Experimental data reported in PMC11764276 (Molecular Therapy, 2024).

What was measured:
[1] = biological target: T1, RBD (residues 334–527 of the SARS-CoV-2 spike glycoprotein) (SARS-CoV-2, wild type (Wuhan-Hu-1 / …, UniProt P0DTC2)); experiment: SPR; Biacore 8k; antibody captured on a Series S Protein A chip to ~200 RU or greater; 4X serially diluted RBD starting at 1,000 nM flowed at 50 uL/min, 120 s contact, 600 s dissociation; HBS-EP+ buffer; 1:1 Langmuir fitting, steady state analysis, or two-state reaction fitting; details: both partners purified
T1 construct: also called COV2_RBD-his; WT RBD

[2] = biological target: T1, RBD (residues 334–527 of the SARS-CoV-2 …); experiment: cell-based or functional assay
[3] = biological target: T1, RBD (residues 334–527 of the SARS-CoV-2 …); experiment: ELISA; plates coated with anti-his antibody, 10 ug/mL COV2_RBD-his captured; antibody from 8 ug/mL, 5X dilution series, in duplicate, 1 h at RT; anti-human-Fc-HRP detection; AUC divided by that of 2196 WT; details: both partners purified

Binder | Kd [1] | AUC ratio to 2196 WT [3] | fold change of IC50 against 2196 WT [3] | further results
2196 WT (recombinant mAb COV2-2196) (antibody, V domains shown, heavy chain of COV2-2196 (IGHV1-58); light chain of COV2-2196 (IGKV3-20); Whole human IgG (captured on Protein A, detected by anti-human Fc); HC vector with IgG VH leader (UniProt Q9Y298), LC vector with IGKV4-1 leader (UniProt P06312); also called WT 2196; COV-2196) VH: QMQLVQSGPEVKKPGTSVKVSCKASGFTFMSSAVQWVRQARGQRLEWIGWIVIGSGNTNYAQKFQERVTITRDMSTSTAYMELSSLRSEDTAVYYCAAPYCSSISCNDGFDIWGQGTMVTVSS VL: not shown | 1.8 nM |  |  | IC50 of neutralization of SARS-CoV-2 (USA-WA1/2020 spike) pseudovirus on HuCHOAce2 cells [2]: 0.08 ng/mL
2196_CDRL1_des2 (antibody, V domains shown, as the heavy chain of m2; as the light chain of m2, with the CDRL1 and CDRL1-adjacent residues of alphamod1 but residues 31 and 32 kept as in 2196 WT; Kabat numbering; Whole human IgG; also called DMAb-Des2; DMAb-2196_Des2) VH: QMQLVQSGPEVKKPGTSVKVSCKASGFTFMSSAVQWVRQARGQRLEWIGWIVIGSGNTNYAQKFQERVTITRDMSTSTAYMELSSLRSEDTAVYYCAAPYCSSISCNDGFDIWGQGTMVTVSS VL: EIVLTQSPGTLSLSPGERATLSCRASQTISNSYVAWYQQKPGQAPRLLIYGASSRATGIPDRFSGSGSGTDFTLTISRLEPEDFAVYYCQHYGSSRGWTFGQGTKVEIK |  | > 0.975 | < 2.14 fold | 
2196_CDRL3_GP (antibody, V domains shown, Whole human IgG; The designs are said to be based on positions 95 and 95A, so the proline probably stands at 95A; also called DMAb-GP) VH: QMQLVQSGPEVKKPGTSVKVSCKASGFTFMSSAVQWVRQARGQRLEWIGWIVIGSGNTNYAQKFQERVTITRDMSTSTAYMELSSLRSEDTAVYYCAAPYCSSISCNDGFDIWGQGTMVTVSS VL: not shown |  | > 0.975 | < 2.14 fold | 
2196 HC + 2072 LC (antibody, V domains shown, as the heavy chain of m2; light chain of antibody 2072 (IGKV3-20, clonally related to COV2-2196); Kabat numbering; also called DMAb-2196-HC + DMAb-2072-LC) VH: QMQLVQSGPEVKKPGTSVKVSCKASGFTFMSSAVQWVRQARGQRLEWIGWIVIGSGNTNYAQKFQERVTITRDMSTSTAYMELSSLRSEDTAVYYCAAPYCSSISCNDGFDIWGQGTMVTVSS VL: not shown | 14.3 nM |  |  | 
DMAb-2196_AFS_(AA_NT)_var2 (antibody, V domains shown, Whole human IgG; also called AFS variant var2) VH: QMQLVQSGPEVKKPGTSVKVSCKASGFTFMSSAVQWVRQARGQRLEWIGWIVIGSGNTNYAQKFQERVTITRDMSTSTAYMELSSLRSEDTAVYYCAAPYCSSISCNDGFDIWGQGTMVTVSS VL: EVVLTQSPGTLSLSPGERATLSCRASQTISNSYVAWYQQRPGQAPRLLIYGASSRAAGIPDRFSGSGSGTDFTLTISRLEPEDFAVYYCQHYGSSRGWTFGQGTKVEIK | 1.6 nM |  |  | IC50 of neutralization of SARS-CoV-2 pseudovirus on HuCHOAce2 cells [2]: 0.05 ng/mL
DMAb-2196_des2_GP (antibody, V domains shown, Whole human IgG; also called DMAb-Des2_GP) VH: QMQLVQSGPEVKKPGTSVKVSCKASGFTFMSSAVQWVRQARGQRLEWIGWIVIGSGNTNYAQKFQERVTITRDMSTSTAYMELSSLRSEDTAVYYCAAPYCSSISCNDGFDIWGQGTMVTVSS VL: EIVLTQSPGTLSLSPGERATLSCRASQTISNSYVAWYQQKPGQAPRLLIYGASSRATGIPDRFSGSGSGTDFTLTISRLEPEDFAVYYCQHYGSSGPWTFGQGTKVEIK |  |  |  | binding result [1]: binds
2196_CDRL3_Q (antibody, V domains shown, Whole human IgG; also called DMAb-Q) VH: QMQLVQSGPEVKKPGTSVKVSCKASGFTFMSSAVQWVRQARGQRLEWIGWIVIGSGNTNYAQKFQERVTITRDMSTSTAYMELSSLRSEDTAVYYCAAPYCSSISCNDGFDIWGQGTMVTVSS VL: not shown |  | > 0.975 | < 2.14 fold | 
DMAb-2196_AFS_(AA_NT)_var3 (antibody, V domains shown, Whole human IgG; also called AFS variant var3) VH: QMQLVQSGPEVKKPGTSVKVSCKASGFTFMSSAVQWVRQARGQRLEWIGWIVIGSGNTNYAQKFQERVTITRDMSTSTAYMELSSLRSEDTAVYYCAAPYCSSISCNDGFDIWGQGTMVTVSS VL: EVVLTQSPGTLSLSPGERATLSCRASQSVSSSYLAWYQQKPGQAPRLLIFGASSRATGIPDRFSGSGSGTDFTLTITRLEPEDSAVYYCQHYGSSRGWTFGQGTKVEIK | 3.2 nM |  |  | IC50 of neutralization of SARS-CoV-2 pseudovirus on HuCHOAce2 cells [2]: 0.06 ng/mL
